Reference: patent CN111690066A

Tests used:
[1] = molecular target: 近岸购买的IL-4Rα重组蛋白 (IL-4Rα, Novoprotein, Cat#CS33) (human) (UniProt P24394); assay: indirect ELISA
[2] = molecular target: 自产IL-4Rα重组蛋白 (in-house human recombinant IL-4Rα, residues 26-232 of NP_000409.1, expressed in 293F cells) (human) (UniProt P24394); assay: indirect ELISA
[3] = molecular target: IL-4Rα on TF-1 cells (human) (UniProt P24394); assay: cell-based or functional assay

Substance: Tab1 (dupilumab) (antibody)
- EC50 [1]: 250 pM
- EC50 [2]: 250 pM
- EC50 of neutralisation of IL-4-induced TF-1 cell proliferation [3]: 180 pM
- EC50 of neutralisation of IL-13-induced TF-1 cell proliferation [3]: 73 pM
